# From the nanobody polyreactivity screen of Harvey et al. (2022)
# Assay: yeast display, Sf9 membrane polyspecificity reagent, FACS + sequencing; frameworks hold sequencing errors
# Method in brief: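 Using colony PCR, genes from sorted yeast display clones were amplified, then sequenced on MiSeq at 2 × 250 and filtered by CDR length. The clones had been stained with 10% biotinylated, detergent-solubilized Sf9 membrane reagent for 1 hour at 4 °C and sorted by FACS into low and high (top ~1%) gates on anti-HA and streptavidin fluorescence. Polyreactivity labels come from the gate of origin.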
row,Sequence,polyreactivity (PSR sort gate)
1,QVHLVESGGGLVQAGGSLRLSCAASGRTFIYYAMGWYRQAPGKERELVAAISSGGSTDYADSVKGRFTISRDNAKNTVYLQMNSLKPEDTAVYYCSAVVGYITYYGYDYWGQGTQVTVSS,low polyreactivity
2,QVQLVESGGGLVQAGGSLRLSCAASGITFRTYAMGWYRQAPGKERELVAAISGSSTSTYYADSVKGRFTISRDNAKNTVYLQLNSLKPEDSAVYYCAAGYRVSVYRYYYWGQGTQVTVSS,high polyreactivity
3,QVQLVESGGGLVQAGGSLRLSCAASGITLSLYAMGWYRQAPGKERELVAAISRGGGRTYYADSVKGRFTISRDNAKNTVYLQMNSLKPEDTAVYYCNAYRRSYRWYGDLGEYWGQGTQVTVSS,high polyreactivity
4,QVQLVESGGGLVQAGGSLRLSCAASGRILYSYAMGWYRQEPGQEREFVAAIRRSGGSTYYADSVKGRFTISRDNAQNTVYLQMNSLKPEETAVDYCAAGRRSSGSYDYWGQGTQVTVSS,high polyreactivity
5,QVQLVESGGGLVQAGGSLRLSCAASGLTFSIYAMGWYRQAPGKERELVAAISWSGGSTYYADSVKGRFTISRDNAKNTVYLQMNSLKPEDTAVYYCAARVYRPWWRYDYWGQGTQVTVSS,high polyreactivity
6,QVQLVESGGGLVQAGGSLRLSCAASGRIIGFNAMGWYRQAPGKERELVASIRTTGGSTRYADSVKGRFTISRDNAKNTVYLQMNSLIPEDTAVYYCAARWGKTLWQYNYWGQGTQVTVSS,high polyreactivity
7,QVQLVEAGGGLVQAGGSLRLSCAASGRIIVRNAMGWYLQPPGKESELVAAISWSSGGTYYADSVKGRFTISRDNAKNTVYLQMNSLKPEDTAVYYCNADPSRAGDYWGQGTQVTVSS,low polyreactivity
8,QVQLVESGGGLVQAGGSLRFSCAASGRTFWSNAMGWYRQAPGKERDFVAVISRAGSTTYYADSVKGRFTISRDNAKNTVYLQMNSLIPEETAVYYCAADRVRSYFSRYYSTPLDYYWGQGTQVTVSS,high polyreactivity
9,QVQLVESGGGLVQAGGSLRLSCAASGSIFLANAMGWYRQAPGKERELVAGISSSVTTNYADSVKGRFTISRDNAKNTVYLQMNSLKPEDTAVYYCNTVLRVQFYWGQGTQVSVSS,low polyreactivity
10,QVQLVESGGGLVQAGGSLRLSCAASGSIFPSYDMGWYRQAPGKERELVAAIRSGGNTTYADSVKGRFTISRDNAKNTVYLQMNSLKPEDTAVYYCAKGYYYYSTVQFYYWGQGTQVTVSS,low polyreactivity
11,QVQLVESGGGLVQAGGSLRLSCAASGSTFGYYAMGWYRQAPGKERELVAAINSGDSTSYAESVKGRFTISRDNAKNTVYLQMNSLKPEDTAVYYCAVRPRRHQYGYWGQGTQVTVSS,low polyreactivity
12,QFQLVESGGGLVQAGGSLRLSCAASGSILDGNTMGWYRQAPGKERELVDAISSLATSTYYADSVKGRFTISRDNAKNTVYLQINSLKPEDTAVYYCAALVRRKRTTSGDDYWGQGTQVTVSS,high polyreactivity
13,QVQLVESGGGLVQAGGSLRLSCAASGSTFQFYAMGWYRQAPGKERELVAVITSGDDTNYADSVKGRFTISRDNAKNTVYLQMNSLKPEDTAVYYCDVDYILVYTRVRSYWFDYWGQGTQVTVSS,low polyreactivity
14,QVQLVESGGGLVQAGGSLRLSCAASGITFTGYDMGWYRQAPGIERELVADISNGSSTDYADSVKGRFTISRDNAKKTVYLQMNSLNPEDTAVYYCAVDIDNWSEYDYWGQGTQVTVSS,low polyreactivity
15,QVQLVESGGGLVQAGGSLRLSCAASGSIFLSNAMGWYRQAPGKEREMVAIRKSTGSTYYADSVKGRFTISRDNAKNTVYLQMYSLKPEDTAVYYCNAGGWNAYRYRAYDYGGQGTQVTVSS,high polyreactivity
16,QVQLVESGGGLVQAGGSLRLSCAASGSTFVWYAMGWYRQAPGKESELVAVIDWSGGSTSYADSVKGRFTISRDNAKNTVYLQMNSLKPEDTAVYYCAAQLGVISRGNYWGQGTQVTVSS,low polyreactivity
17,QVQLVESGGGLVQAGGSHRLSCAASGSTFVYYAMGWYRQAPGKERELVADISSSTGSTYYADSVKGRFTISRDNAKNTVYLQMNSLKPEDTAVYYCAAGRLKFWYTYIIYDFYYWGQGTQVTVSS,low polyreactivity
18,QVQLVDSGGGLVQAGGSRRLSCADSGSIFGDYDMGWYRQAHGKERELVATIRYSGGTTYYADSVKGRFTISRDNAKNTVYLQLISLKPEDTAVYYCNARVWLFWTSELDSWGQGTQVTVSS,low polyreactivity
19,QVQLVESGGGLVQAGGSLRLSCAASGSTFYIYGMGWYRQAPGKERELVARISSGGSTYADSVKGRFTISRDNAKNTVYLQMNSLKPEDTAVYYCAAAAARTYRRYRYEGYYYWGQGTQVTVSS,high polyreactivity
20,QVQLVESGGGLVQAGGSLRLSCAASGSIFDVNAMGWYRPAPGKERELVAAISDSGGSTYYADSVKGRFTISRDTAKNTVYLQMNSLKPEDTAVYYCNADWSWYNYYDFDYWGQGTQVTVSS,low polyreactivity
21,QVQLVESGGGLVQAGGSLRLSCAASGSIFRWYAMGWYRQAPGKERELVAVISYGGGSTYYADSVKGRFTISRDNAKNTVYLQMNSLKPEDTAVYYCAADPTWRYYYHYTYYYWGQGTQVTVSS,high polyreactivity
22,QVQLVESGGGLVQAGGSLRLSCAAYGRTLGDYAMGWYRQAPGKERELVAAISSGGNTYYADSVKGRFTISRDNAKNTVYLQMKSVKPEDSAVYYCDAAHYYRSYWGQGTQETVSS,high polyreactivity

row,Sequence,polyreactivity (PSR sort gate)
1,QVQLVESGGGLVQAGGSLRLSCAASGYIFRIYAMGWYRQAPGKERELVARISSGGGTNYADSVKGRFTISRDNAKNTVYLQMNSLKPEDTAVYYCNAGYGYQRGGVFFYRMGYWGQGTQVTVSS,high polyreactivity
2,QVQLVESGGGLVQAGGSLRLSCAASGRTFWSNAMGWYRQAPGKERELVAAISTGAGSTYYADSVKGRFTISRDNAKNTVYLQMNSLKPEDTAVYYCAAVYNGALYTYYYWGQGTQVTVSS,high polyreactivity
3,QVQLVESGGGLVQAGGSLRLSCAASGFIFYIYAMGWYRQAPGKERELVAAISRSSARTYYADSVKGRFTISRYNAKNTVYLQMISLKPEDTAVYDCAARYSGQWYRGPQYGYWGQGTQVTVSS,high polyreactivity
4,QVQLVESGGGLVQAGGSLRLSCAASGFTFYTYAMGWYRQAPGKERELVATITGRTGSTYYADSVKGRFTISRDNAKNTVYLQMNSLKPEDTAVYYCAADWGKLHVTWFRVNYWGQGTQVTVSS,low polyreactivity
5,QVQLVESGGGLVQAGGSLRLSCAASGFIFAEYAMGWYRQAPGKERELVAAITWSGVTTYYADSVKGRFTISRDNAKNTVYLLMNSLKPEDTAVYYCAAGRTRRKFDYWGQGTQVTVSS,low polyreactivity
6,QLQLVESAGGLVQAGGSLRLSCAASASTFGSYAMGWYRQATGKETELDASNTSAGSTNYADSVKGRFTISRDNAKNTVYLQMNSLKPVDTEVYYCNDVRYYSYQYVPEVTHRYGFWGQGTQVTVSS,high polyreactivity
7,QVQIVESGGGLVQAGGSLRLSCAASGFIFTAYAMGWYRPGPGKERELDAAISSSGTRTYYADSVKGRFTISRDYAKNTVYLQMNCLKPEDTAVYYCNKLYLVWNFYSGYDYSGQGTQVTVSS,high polyreactivity
8,QVQLVESGGGLVQAGGSLRLSSAASGRTFYGNAMGWYRQAPGKERELVATINYSGGSTYYADSVKGRFTISRDNAKNTVYLQMNSLKPEDTAVYYCAAVDPEEFDYWGQGTQVTVSS,low polyreactivity
9,QVQLVESGGGLVQAGGSLRLSCAASGLTFNYYAMGWYRQAPGKERDLVAASTSSGSSTYYADSVKGRFTISRDNAKNTVSLQMNSLKAEDTAVYYCAVSRCSFYWLVDYWGQGTQVTVSS,high polyreactivity
10,QVQLVESGGGLVQAGGSLRLSCAASGFIFVRYAMGWYRQAPGKEREMVAAISSGGSTKYADSVKGRFTISRDNAKNTVYLQMNSLKPEDTAVYYCAADATPGRGVDYWGQGTQVTVSS,high polyreactivity
11,QVQLVESGGGLVQAGGRLRLSCAASGRIFDLNAMGWYRQAPGKERELVADINSGGSTYYADSVKGRFTISRDNAKNTVYLQMNSLKPEDTAVYYCDVRRNQHVVQMYYWGQGTQVTVSS,low polyreactivity
12,QVQLVESGGGLVQAGGSLRLSCAASGSIFYPYAMGRYRQAPGKERELVASIRSRRGTTFYADSVKGRFTISRDNAKNTVYLQMNSLKPEDTAVYYCAVDNWSSSYYWWVDKLGGSDYWGQGTQVTVSS,low polyreactivity
13,QVQLVESGAGLVQAGGSLRLSCAASGSAFYVYARGWYTQAPGKERELVAAIRGGGSTNYADSVKGRFTISRDNAKNTFYLQMNSLKPEDTAVYDCAARYRSPRYRPSGYSYNYWGQGTQVTVSS,high polyreactivity
14,QVQLVESGGGLVQAGGSLRLSCAASGRTFPGNSMGWYRQAPGKERELVAAISWSGTRTYYADSVKGRFTISRDNAKNTVYLQMNSLKPEDTAVYYCNVVVKGAWDYYPYDYCGQGTQVTVSS,high polyreactivity
15,QVQLVESGGGLVQAGGSLRLSCAASGTIFQSNAMGWYRQAPGKERELVAAISSSGGRTYYADSVKGRFTISRDNAKNTVYLQMNSLKPEDTAVYYCADLGYPDGGWGQGTQVTVSS,low polyreactivity
16,QVQLVESGGGLVQAGGSLRLSCDASGSTFKNYAMGWYRQAPGKERELVAGINWYGGRTYYADSVKGRFTISRDNAKNTVFLQMNSLKPEDTAVYYCAAALPGYGDYYYWGQGTQVTVSS,high polyreactivity
17,QVQLVESGGCLVQAGGSLRLSCAASGSTFHYNAMGWYRQAPGKERELVATISWSGGSTYYADSVKGRFTISRDNAKNTVYLQMNSLKPEDTAVYYCAARYSGYRGSFYGRHGGKYYYWGQGTQVTVSS,high polyreactivity
18,QVQLVESGGGLVQAGGSLRLSCAASGLIFYRYTMGWNRQAPGKERELVAGITSGGRTYYADSVKGRFTISRDNAKNTFYLQMNSLKPEDTAVYYCAARYFPARTRYYYWGQGTQVTVSS,high polyreactivity
19,QVQLVESGGGLVQAGGSLRLSCAASGSIFSFYAMGWYRQAPGKERELVAAITSDGSTDYADSVKGRFTISRDNAKNTVYLQMNSLKPEDTAVYYCAADYIVRVVSRYRYGYEYWGQGTQVTVSS,low polyreactivity
20,QVQLVESGGGLDQAGGSLRLSCAPSGSIVRYAMGWYRPAPGKERELVAAISSSGGSTYYADSVKGRFTISRDNAKNTFYLQMNRLKPADTAVYYCAKRIVQASVAAYYYWGQGPQVTVSS,high polyreactivity
21,QVQLVESGGGLVQAGGSLRLSCAASGSTFWWYAMGWYRQAPGKEREFVAAITSTGGSTYYADSVKGRFTISHDNAKNTVYLQMNSLKPEDTAVYYCAVRLYLEMDYWGQGTQVTVSS,high polyreactivity
